assay: soluble on expression in E. coli; label from the status in PepcDB or PDB records

Row | Sequence | soluble on expression in E. coli
1 | MIFYFSGTGNSKWIANQLSKEQQEDLFFIPDAWKNDTWEFSLREDEKIGFVFPVYSWAPPVIVQEFIRKLVLKGYQQQYLFFVCSCGDDTGLTRQVMEKALAARGWRCNAGFSVIMPNNYVLFLGFDVDSKELEKKKLAEAVPALEKVSRLITGRETVFACKEGSLPFIKTRIINPLFVRYQMSPKPFHATSECIGCKRCEKSCPVGNITMKERRPVWGKNCTACLACYHVCPQHAVQYGKKTKGKGHYFNPDSAY | not soluble
2 | MIGSYALSILDEAEVLVDLLTGGAPKVNKIFLITSSRRKRPDYYGELESCLKEMDLNLEIITVDDVSNFFEVYLILEKICELEGTPKWVNVGSGHGIMLSALAVHAFIKDALLVAFDKEEKKVIVTDIKKLKRIKIYQKRYFELISELGEGEKTITELSKIFNLSRSAMSRRLKHMETLNIVVRKGTGRSNIPYVFKLTELGRKLL | soluble
3 | MIHITSQACFLWHTTINKICNRPMFNPLTIRFWGVRGSIPCPGSHTVRYGGNTPCVEIQANGQRIILDGGTGLRVLGEHLMGQQPVTAHLFFTHTHWDHIQGFPFFQPAFVPGNQFHIYAVPGKNGQGIERRLNDQMLHPNFPVPLQIMGGDLRFYDLEVGERVHLGDGVVVSNEALNHPGGGVGYRVSWQGIHVAYITDTEHLPDRLHPGAFALADHADVMIYDATYTDEEYYHPQQSKVGWGHSTWQEAVKLAQAAQVKQLILFHHDPSHDDDCLDRIGELARAQFPQTLLAREGLIISVYPNVIHFPATPQASLEHHHHHH | not soluble
4 | MIHSLFLINCSGDIFLEKHWKSVVSQSVCDYFFEAQEKAADVENVPPVISTPHHYLISIYRDKLFFVSVIQTEVPPLFVIEFLHRVADTFQDYFGECSEAAIKDNVVIVYELLEEMLDNGFPLATESNILKELIKPPTILRSVVNSITGSSNVGDTLPTGQLSNIPWRRAGVKYTNNEAYFDVVEEIDAIIDKSGSTVFAEIQGVIDACIKLSGMPDLSLSFMNPRLLDDVSFHPCIRFKRWESERVLSFIPPDGNFRLISYRVSSQNLVAIPVYVKHSISFKENSSCGRFDITIGPKQNMGKTIEGITVTVHMPKVVLNMNLTPTQGSYTFDPVTKVLTWDVGKITPQKLPSLKGLVNLQSGAPKPEENPSLNIQFKIQQLAISGLKVNRLDMYGEKYKPFKGVKYVTKAGKFQVRT | soluble
5 | MIHVREFQASDSDVVLHLLDLKDIINSSSFSEKVFQLSESGDFLGLVAEANQSGKHQVVGCAFLRLLETISRGLHCQIEELAIDKAWLHQGVGKSLMETATSWAKERGVGDIYVDSPYASIAVKEGIDSVFVRDEVLEVAQQYEAEKEELQESLKKQYNTTISKLEKEYEAKKQQQDETIHNLQTQLEDATQYLEEQQAEENELLNIDPSSPRNHTGPYPRGRGFWGTLCFPIRKTCGPGSCLRLPSGPASVRGSTDRSN | soluble
6 | MIIGIDVGGTNTDAAIVSDEIKTIKLPNEAGIGGILKEISKEANLIEEKVVVSTSWPLNLIISKFSESRTLSLVIPGPGLNYSEYGEVLKGYVNHRGDVVEDIDEYEIAAIFRENSYDNVAISSKFSVRNGSLEDRVAEIVRNYVEDYRIALSHYAGGMNYPARIHTTVVNAKIRETVYRLTELIKAYAGDFYYFKGDGGIVPYTIALNNPSELYNSSPAAVALGAVYLTGEKNALVVDIGGTSTDFVEVIDGMPKIVEGIELAGRKTLIRCVDSVSIPFGGDSVVENGKLVPVCSKPIAFGGESFTLTDALNCAGYEIGDYRSSRKYECDVEKALNQFVSLAATTVREIGCKKIVGTGYLAPYLIPEVAKAAGVEYVIPDHYESANAVGVAVSRVSLTLYVRIDTEKCFAAYNGHTESCPFKPGSLPDDEQILEVAKEKVVEVAKKFGASEEELGKVRTVYFNSFTVVRGGMKRGVIADVIVQIEPGIRYGGLAAALEHHHHHH | not soluble
7 | MIIIQLNERQLKIIDIVKENEPITSESIASSLNVTRATLRSDLAILTMTGILDARPKVGYFYSGVSEINLIGKSVKEKTVEDIMSMPVLAKKDESIYDVIVTMFLSDVGSIVIIDENEELCGVVSRKDLLKATIGGSDINKMPIGMIMTRTPNVVTLTKGASVLLASRKIIEHEVDSIPIVEYKGEDKNHMRVVGRISKTNITKLFLEIVDN | not soluble
